The values below come from patent US20230038638A1, “COMPLEMENT FACTOR I-RELATED COMPOSITIONS AND METHODS” (published 2023).

One experiment addresses T1, human C4b (human) (UniProt P0C0L5).
T1 sequence: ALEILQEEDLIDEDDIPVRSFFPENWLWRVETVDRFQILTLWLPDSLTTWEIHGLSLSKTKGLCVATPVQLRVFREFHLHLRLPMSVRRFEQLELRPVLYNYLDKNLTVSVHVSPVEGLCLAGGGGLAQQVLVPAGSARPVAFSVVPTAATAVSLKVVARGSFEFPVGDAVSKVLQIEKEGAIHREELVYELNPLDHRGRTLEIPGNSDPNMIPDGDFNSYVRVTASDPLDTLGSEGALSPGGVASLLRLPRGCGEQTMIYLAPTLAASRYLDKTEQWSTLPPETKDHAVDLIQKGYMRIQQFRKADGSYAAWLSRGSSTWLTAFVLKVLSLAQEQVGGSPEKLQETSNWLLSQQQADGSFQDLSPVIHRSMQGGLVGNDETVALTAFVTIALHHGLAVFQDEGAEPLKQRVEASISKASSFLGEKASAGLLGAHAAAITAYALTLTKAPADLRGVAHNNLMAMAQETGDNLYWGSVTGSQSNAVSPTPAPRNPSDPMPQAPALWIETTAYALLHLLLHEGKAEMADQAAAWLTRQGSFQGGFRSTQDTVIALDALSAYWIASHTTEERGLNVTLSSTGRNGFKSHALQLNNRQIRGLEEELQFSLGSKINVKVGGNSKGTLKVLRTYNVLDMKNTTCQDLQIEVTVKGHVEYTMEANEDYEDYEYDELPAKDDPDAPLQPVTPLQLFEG

The target of experiment [1] is soluble human C3b (human) (UniProt P01024).

Turning to CFI-HSA variant E38A; D425R (enzyme), the C4b Screen Ref Fold (fold vs CFI-HSA wild type) in the experiment with human C4b (human) stood at 0.96. For the same substance, in experiment [1], the iC3b Screen Ref Fold (fold vs CFI-HSA wild type) worked out at 0.83.
For the substance “CFI-HSA variant E457G; E461Q; R462K; F464Y; N531G; GGSSGG (SEQ ID NO: 6); CR1(ccp15-17) (from UniProt P17927) (enzyme)”, in the experiment with human C4b (human), the C4b Screen Ref Fold (fold of CFI-HSA wild type) came to 5.42. In addition, in experiment [1], the iC3b Screen Ref Fold (fold of CFI-HSA wild type) was -0.01.
The like results for “CFI-HSA variant E457G; GGSSGG (SEQ ID NO: 6); CR1(ccp1-3) (from UniProt P17927) (enzyme)” were, in that order, 1.73 and -0.04.
As to “CFI-HSA variant E457G; N531G; P535G; P558S (enzyme)”, in the experiment with human C4b (human), the C4b Screen Ref Fold (fold of CFI-HSA wild type) was determined as 1.56. In experiment [1], the iC3b Screen Ref Fold (fold of CFI-HSA wild type) turned out to be 0.87.
The corresponding values for “CFI-HSA variant E457G; N531G; P535G; WT; GGSSGG (SEQ ID NO: 6); CR1(ccp15-17) (from UniProt P17927) (enzyme)” are 5.82 and 0.03.
As for “CFI-HSA variant E457G; N531G; WT; GGSSGG (SEQ ID NO: 6); CR1(ccp15-17) (from UniProt P17927) (enzyme)”, the C4b Screen Ref Fold (fold of CFI-HSA wild type) with human C4b (human) is 4.95. In experiment [1], the iC3b Screen Ref Fold (fold of CFI-HSA wild type) was 0.15.
For the substance “CFI-HSA variant E457G; P535G; N422K (enzyme)”, the C4b Screen Ref Fold (fold of CFI-HSA wild type) in the experiment with human C4b (human) was 1.87. In experiment [1], the iC3b Screen Ref Fold (fold of CFI-HSA wild type) was 1.43.
Take “CFI-HSA variant E457G; P535G; WT; GGSSGG (SEQ ID NO: 6); CR1(ccp15-17) (from UniProt P17927) (enzyme)”: the C4b Screen Ref Fold (fold of CFI-HSA wild type) in the experiment with human C4b (human) was 3.89. The iC3b Screen Ref Fold (fold of CFI-HSA wild type) in experiment [1] was 0.07.
The corresponding values for “CFI-HSA variant E457G; WT; GGSSGG (SEQ ID NO: 6); CR1(ccp15-17) (from UniProt P17927) (enzyme)” are 6.11 and 0.1.
CFI-HSA variant E487A; K14A (enzyme): the C4b Screen Ref Fold (fold of CFI-HSA wild type) with human C4b (human) amounted to 0.87. Also, in experiment [1], the iC3b Screen Ref Fold (fold of CFI-HSA wild type) turned out to be 1.71.
For CFI-HSA variant E530D (enzyme), the C4b Screen Ref Fold (fold vs CFI-HSA wild type) with human C4b (human) is 0.24. Also, the iC3b Screen Ref Fold (fold vs CFI-HSA wild type) in experiment [1] was 0.25.
The corresponding values for CFI-HSA variant E530G (enzyme) are -0.02 and 0.12.
The like results for CFI-HSA variant E536A (enzyme) were, in that order, 0.57 and 0.76.
Regarding CFI-HSA variant F559L; V565I (enzyme), in the experiment with human C4b (human), the C4b Screen Ref Fold (fold of CFI-HSA wild type) stood at 0.77. For the same substance, the iC3b Screen Ref Fold (fold of CFI-HSA wild type) in experiment [1] turned out to be 1.59.
The corresponding values for “CFI-HSA variant F559L; V565I; P558S (enzyme)” are 0.43 and 0.49.
The corresponding values for CFI-HSA variant F559L; V565T (enzyme) are 0.28 and 0.54.
The corresponding values for “CFI-HSA variant F559L; Y563H; V565T (enzyme)” are 0.55 and 0.58.
As to CFI-HSA variant F559Y (enzyme), the C4b Screen Ref Fold (fold relative to CFI-HSA wild type) with human C4b (human) was determined as 0.66. In experiment [1], this substance registered an iC3b Screen Ref Fold (fold relative to CFI-HSA wild type) of 1.23.
For the substance CFI-HSA variant G556P (enzyme), the C4b Screen Ref Fold (fold of CFI-HSA wild type) with human C4b (human) is 0.65. Besides, the iC3b Screen Ref Fold (fold of CFI-HSA wild type) in experiment [1] was 0.39.
The corresponding values for CFI-HSA variant G556P; P558G (enzyme) are 1.86 and 0.68.
For CFI-HSA variant H370A (enzyme), the C4b Screen Ref Fold (fold vs CFI-HSA wild type) with human C4b (human) was 0.37. In addition, in experiment [1], the iC3b Screen Ref Fold (fold vs CFI-HSA wild type) was 0.57.
The like results for CFI-HSA variant I322V (enzyme) were, in that order, 0.38 and 0.39.
The corresponding values for CFI-HSA variant I322V; V323I (enzyme) are 0.31 and 0.39.
For “CFI-HSA variant I322V; V323I; R327P (enzyme)”, the C4b Screen Ref Fold (fold vs CFI-HSA wild type) with human C4b (human) turned out to be 0.38. For the same substance, in experiment [1], the iC3b Screen Ref Fold (fold vs CFI-HSA wild type) is 0.36.
Take CFI-HSA variant K14A; D425R (enzyme): the C4b Screen Ref Fold (fold vs CFI-HSA wild type) in the experiment with human C4b (human) was determined as 0.64. Also, the iC3b Screen Ref Fold (fold vs CFI-HSA wild type) in experiment [1] stood at 0.99.
For CFI-HSA variant K14E (enzyme), the C4b Screen Ref Fold (fold of CFI-HSA wild type) with human C4b (human) amounted to 1.35. Further, the iC3b Screen Ref Fold (fold of CFI-HSA wild type) in experiment [1] came to 1.74.
The like results for CFI-HSA variant K14E; E487K (enzyme) were, in that order, 0.7 and 1.43.
Turning to CFI-HSA variant K326A-R327A (enzyme), the C4b Screen Ref Fold (fold vs CFI-HSA wild type) with human C4b (human) was found to be 0.2. The iC3b Screen Ref Fold (fold vs CFI-HSA wild type) in experiment [1] was determined as 0.37.
For CFI-HSA variant K504G (enzyme), the C4b Screen Ref Fold (fold vs CFI-HSA wild type) with human C4b (human) came to 0.15. Besides, in experiment [1], the iC3b Screen Ref Fold (fold vs CFI-HSA wild type) was found to be 0.17.
Consider CFI-HSA variant K504P (enzyme), for which the C4b Screen Ref Fold (fold vs CFI-HSA wild type) with human C4b (human) was -0.02. Further, the iC3b Screen Ref Fold (fold vs CFI-HSA wild type) in experiment [1] was 0.01.
The corresponding values for CFI-HSA variant M220A-K221Q (enzyme) are 1.85 and 0.49.
“CFI-HSA variant N52Q; N85Q; N159Q (enzyme)”: the C4b Screen Ref Fold (fold vs CFI-HSA wild type) with human C4b (human) turned out to be 0.24. In addition, the iC3b Screen Ref Fold (fold vs CFI-HSA wild type) in experiment [1] was found to be 1.93.
The like results for CFI-HSA variant N85Q (enzyme) were, in that order, 0.66 and 2.47.
For the substance CFI-HSA variant N159Q (enzyme), the C4b Screen Ref Fold (fold vs CFI-HSA wild type) with human C4b (human) is 0.75. In addition, the iC3b Screen Ref Fold (fold vs CFI-HSA wild type) in experiment [1] was 2.21.
As for CFI-HSA variant N402E (enzyme), the C4b Screen Ref Fold (fold vs CFI-HSA wild type) with human C4b (human) stood at 1.64. Further, in experiment [1], the iC3b Screen Ref Fold (fold vs CFI-HSA wild type) came out at 0.75.
Regarding “CFI-HSA variant N531G; P535A; GGSSGG (SEQ ID NO: 6); CR1(ccp15-17) (from UniProt P17927) (enzyme)”, the C4b Screen Ref Fold (fold of CFI-HSA wild type) with human C4b (human) was found to be 3.53. For the same substance, the iC3b Screen Ref Fold (fold of CFI-HSA wild type) in experiment [1] was determined as 0.14.
With “CFI-HSA variant N531G; P535G; N422K (enzyme)”, the C4b Screen Ref Fold (fold of CFI-HSA wild type) with human C4b (human) is 2.85. Besides, the iC3b Screen Ref Fold (fold of CFI-HSA wild type) in experiment [1] was 1.96.
The like results for “CFI-HSA variant N531G; P535G; WT; GGSSGG (SEQ ID NO: 6); CR1(ccp15-17) (from UniProt P17927) (enzyme)” were, in that order, 3.06 and 0.06.
The corresponding values for “CFI-HSA variant N531G; WT; GGSSGG (SEQ ID NO: 6); CR1(ccp15-17) (from UniProt P17927) (enzyme)” are 5.3 and 0.05.
In the case of CFI-HSA variant P535G (enzyme), in the experiment with human C4b (human), the C4b Screen Ref Fold (fold vs CFI-HSA wild type) came to 0.3. In addition, the iC3b Screen Ref Fold (fold vs CFI-HSA wild type) in experiment [1] worked out at 0.19.
Regarding CFI-HSA variant P535G; K534Q (enzyme), the C4b Screen Ref Fold (fold of CFI-HSA wild type) in the experiment with human C4b (human) was 0.35. Moreover, in experiment [1], the iC3b Screen Ref Fold (fold of CFI-HSA wild type) turned out to be 0.24.
The corresponding values for CFI-HSA variant P535G; N422K (enzyme) are 0.09 and 0.52.
The corresponding values for CFI-HSA variant P535G; P558S (enzyme) are 0.2 and 0.25.
As to “CFI-HSA variant P535G; WT; GGSSGG (SEQ ID NO: 6); CR1(ccp15-17) (from UniProt P17927) (enzyme)”, in the experiment with human C4b (human), the C4b Screen Ref Fold (fold of CFI-HSA wild type) is 2.73. Besides, the iC3b Screen Ref Fold (fold of CFI-HSA wild type) in experiment [1] was 0.
Regarding CFI-HSA variant P535K (enzyme), the C4b Screen Ref Fold (fold vs CFI-HSA wild type) in the experiment with human C4b (human) was determined as 1.02. Further, the iC3b Screen Ref Fold (fold vs CFI-HSA wild type) in experiment [1] stood at 1.61.
In the case of CFI-HSA variant P558S; F559L (enzyme), in the experiment with human C4b (human), the C4b Screen Ref Fold (fold of CFI-HSA wild type) came out at 0.9. The iC3b Screen Ref Fold (fold of CFI-HSA wild type) in experiment [1] amounted to 0.54.
Regarding CFI-HSA variant R327P (enzyme), the C4b Screen Ref Fold (fold vs CFI-HSA wild type) in the experiment with human C4b (human) came to 1.67. In addition, the iC3b Screen Ref Fold (fold vs CFI-HSA wild type) in experiment [1] amounted to 0.67.
The corresponding values for CFI-HSA variant R462A (enzyme) are 0.31 and 0.11.
The corresponding values for CFI-HSA variant R462D (enzyme) are -0.05 and 0.
For the substance CFI-HSA variant R462K (enzyme), the C4b Screen Ref Fold (fold vs CFI-HSA wild type) with human C4b (human) was determined as 0.27. The iC3b Screen Ref Fold (fold vs CFI-HSA wild type) in experiment [1] was determined as 0.24.
